Experimental data as given in patent EP4810057A1.
pKd: −log10 of the molar value.

Columns and labels:
Test in all cases: BLI, mAb on Protein A or AMC2 sensor, 1:1 fit
[1] = biological target: SCB-1019T(B) (respiratory syncytial virus subtype B (Australian RSV B strain))
[2] = biological target: SCB-1019T(A) (respiratory syncytial virus subtype A (A2 strain))
[3] = biological target: WT-F-Trimer (respiratory syncytial virus, subtype not given)
[4] = biological target: commercial GSK vaccine F protein control

Substance	pKd [1]	RLU(nm) [1]	koff [1]	kon [1]	pKd [2]	RLU(nm) [2]	koff [2]	RLU(nm) [3]	pKd [4]	RLU(nm) [4]	koff [4]	pKd [3]	koff [3]	kon [4]	kon [2]	kon [3]
AM14 (antibody)	9.70	0.534 nm	4.43e-05 s⁻¹	222000 M⁻¹ s⁻¹	9.42	0.693 nm	5.67e-05 s⁻¹	0 nm	9.32	1.34 nm	0.000364 s⁻¹	–	–	–	–	–
AM22 (antibody)	9.31	1.1 nm	3.99e-05 s⁻¹	80700 M⁻¹ s⁻¹	9.68	1.13 nm	2.1e-05 s⁻¹	0.123 nm	9.19	1.42 nm	0.000196 s⁻¹	> 12.00	< 1e-07 s⁻¹	304000 M⁻¹ s⁻¹	–	–
D25 (antibody)	9.61	1.5 nm	0.000112 s⁻¹	–	9.94	1.19 nm	3.38e-05 s⁻¹	0.266 nm	9.66	1.11 nm	0.000104 s⁻¹	> 12.00	< 1e-07 s⁻¹	472000 M⁻¹ s⁻¹	296000 M⁻¹ s⁻¹	12100 M⁻¹ s⁻¹
MPE8 (antibody)	9.11	0.672 nm	3.43e-05 s⁻¹	–	> 12.00	0.59 nm	< 1e-07 s⁻¹	0.0968 nm	8.65	0.815 nm	0.000353 s⁻¹	7.66	0.000226 s⁻¹	–	4.12e+06 M⁻¹ s⁻¹	–
hRSV90 (antibody)	8.71	0.068 nm	0.00153 s⁻¹	788000 M⁻¹ s⁻¹	> 12.00	0.928 nm	< 1e-07 s⁻¹	0.0884 nm	9.11	1.03 nm	0.000218 s⁻¹	7.90	0.000271 s⁻¹	282000 M⁻¹ s⁻¹	–	21400 M⁻¹ s⁻¹
